Patent US20260234247A1
Where a chain is given by its changes, count along the chain named.

Columns and labels:
[1] = target: Rhesus LILRB1 (NP_001035762.2) on CHOK1 cells (rhesus macaque) (UniProt F7H3G7); experiment: flow cytometry on CHOK1-rhesus LILRB1 (NP_001035762.2) cells
[2] = target: Rhesus LILRB1 (NP_001035762.2) on CHOK1 cells (rhesus macaque) (UniProt F7H3G7); experiment: cell based blocking assay on CHOK1-rhesus LILRB1 (NP_001035762.2) cells; blocked ligand not named

B1: LK-RB1-42 (antibody, human IgG4 S228P, kappa, V domains shown)
VH: QVQLQQPGAELVKPGTSVKLSCKASGYSFISYWVYWVKQRPGQGLEWIGMIHPNSGSTNFNEKFRYKATLTVDKSSSTAYIQLSSLTSEDSAVYYCGRSDDGYPYHAMDSWGQGTSVTVSS
VL: DIVMTQSQKFMSTSVGDRVSVTCKASQNVGTNVAWYQQKPGQSPKALIYSASYRFSGVPDRFTGSGSGTDFTLTIGNVQSEDLAEYFCHQYKNYPLTFGGGTKLEIKR
Q: For B1, which EC50 [1] is on record?
A: 59.8 nM

B2: LK-RB1-50 (antibody, human IgG4 S228P, kappa, V domains shown)
VH: QVQLKQSGPGLVQPSQSLSITCTVSGFSLTSYGVHWVRQSPGKGLEWLGVIWRGGNTDYNAPFVSRLSITKDNSQSQVFFKMNSLEADDTAIYYCAKNSLDVYSSWYFDVWGTGTTVTVSS
VL: QIVLSQSPAILSAFPGEKVTMTCRASSSVSFMHWYQQKPGSSPKPWIYATSNLASGVPARFSGSGSGTSYSLTISRVEAEDAATYYCQQWSSNPLTFGAGTKLELKR
Q: With B2 as the binder, how does the EC50 [1] read?
A: 11.2 nM

Q: What about the EC50 [2] of the same binder?
A: 5.68 nM

Q: What about the Top Inhibition (%) [2] of the same binder?
A: 57.8%

B3: LK-RB1-46 (antibody, human IgG4 S228P, kappa, V domains shown)
VH: EVQLQQSGPELVKPGASVKISCKTSGYTFTDYYMNWVKQSHGKSLEWIGDIYPINGDISYNQKFKGKATLTVDKSSSTVYMEIRSLTYEDSAVYYCARLAQTTSGGFDYWGQGTTLTVSS
VL: DIVLTQSPTSLAVSLGQRAIISCKASQSVSFAGTSLMHWYQQKPGQQPKLLIYRASNLKAGVPTRFSGSGSRTDFTLNIHPVEEDDAATYYCQQSREYPMYTFGGGTKLEIKR
Q: How did the EC50 [1] turn out when B3 was run?
A: 2.71 nM

B4: LK-RB1-35 (antibody, human IgG4 S228P, kappa, V domains shown)
VH: DVQLQESGPGLEKPSQSLSLTCSVTGYSITRGYQWNWIRQFPGNKLEWMGYISYDGSNNYNPSLKNRISITRDASKNQFFLKLNSVTTEDTATYYCARRSYNSIDYWGQGTTLTVSS
VL: DIVLTQSPATLSVTPGDSVSLSCRASQSISSNLHWYQQKSHESPRLLIKYASQSISGIPSRFSGSGSGTDFTLSINSVETEDFGMYFCQQSNSWPLTFGAGTKLELKR
Q: For B4, which EC50 [1] is on record?
A: 0.64 nM

B5: LK-RB1-36 (antibody, human IgG4 S228P, kappa, V domains shown)
VH: B4 VH with T71I, A74T
VL: B4 VL with S31N
Q: B5 was tested. Which EC50 [1] did it give?
A: 0.54 nM

B6: LK-RB1-38 (antibody, human IgG4 S228P, kappa, V domains shown)
VH: DVQLQESGPGLVQPSQSLSLTCSVTGYSITSGYQWNWIRQLPGNKLEWMAYISFDGSNNYNPSLKNRISITRDTSKNQFFLKLKSVTTEDTATYYCARRDYDGVAYWGQGTLVTVSA
VL: B4 VL with D1E, S18R, S28N, S31N, N32Y, E42G, L47I
Q: B6 was tested. Which EC50 [1] did it give?
A: 4.97 nM

B7: LK-RB1-34 (antibody, human IgG4 S228P, kappa, V domains shown)
VH: QVQLQQSGAELVKPGASVKLSCKASGYTFTEYTIHWVKQRSGQGLEWIGWFYPGSDSIKYNEKFKDKATLTADKSSSTVYMELSRLTSEDSAVYFCSRHEGPYFTSQYYFDYWGQGTTLTVSS
VL: DILLTQSPAILSVSPGERVSFSCRASRYIGTSIHWYQQRTNGSPRLLIKYASESISGIPSRFSGSGSGTDFTLSINSVESEDIADYYCQQSNTWPLTFGAGTKLELKR
Q: With B7 as the binder, how does the EC50 [1] read?
A: 8.06 nM

B8: LK-RB1-45 (antibody, human IgG4 S228P, kappa, V domains shown)
VH: QVQLQQSGTELARPGASVKLSCKASGYTFTNFWMHWIKQRPGQGLEWIGYVNPTSDYTKYNQKFKDKATLTADKSSSTAYMQLNSLTYEDSAVYYCTRSSLYDTNYVFDSWGQGTTLTVSS
VL: B7 VL with R27Q, Y28S, T31R, S65G, N76S, S77N, T93N, L96F, A100S, L106I
Q: How did the EC50 [1] turn out when B8 was run?
A: 96.1 nM

B9: LK-RB1-37 (antibody, human IgG4 S228P, kappa, V domains shown)
VH: QVQLQQPGAELVKPGASVKLSCKASGYTFTSYWMHWVKQRPGRGPEWIGRIDPNSGYARYNEKFKNKATLTADKPSSTADMHLSSLTSEDSAVYYCTRSFITTAEWFFDVWGTGTTVTVSS
VL: B7 VL with R27Q, Y28S, T40R, A51T, T93S, L96H, A100G
Q: For B9, which EC50 [1] is on record?
A: 37.7 nM

B10: LK-RB1-43 (antibody, human IgG4 S228P, kappa, V domains shown)
VH: EFQLQQSGPELMKPGASVKISCKASGYSFTDYNMNWVKQSNGKSLEWIGIIDPNYGTTTYNQKFKGRATLTVDQSSNTAYMQLNSLTSEDSAVYYCAREGRYSWFAYWGQGTLVTVSA
VL: DIQMTQSPGALSVSVGETVTITCRASENINSNLAWYQQKQGKSPQLLVYAATNLADGVPSRFSGSGSGTQYSLKINSLQSEDFGSYHCQHFWGTPFTFGSGTKLEIKR
Q: How did the EC50 [1] turn out when B10 was run?
A: 1.62 nM

B11: LK-RB1-59 (antibody, human IgG4 S228P, kappa, V domains shown)
VH: QIQLVQSGPELKKPGETVKISCKASGYTFTTYGMSWVKQAPGKGLKWMGWINTYSGVPTYADDFKGRFAFSLETSASTAYLQINNLKNEDTATYFCARRRIYYGNKGYAMDYWGQGTSVTVSS
VL: B10 VL with G9A, A10S, N30Y, A34V, A50T, Y71F, H87Y, F96W, S100G
Q: With B11 as the binder, how does the EC50 [1] read?
A: 40.2 nM

B12: LK-RB1-39 (antibody, human IgG4 S228P, kappa, V domains shown)
VH: EVQLQQSGAELVRPGASVKLSCTASGFNIKDDYVHWVNQRPEQGLEWIGWIDPENGDTGYASKFQDKATITADTSSNTAYLHLSSLTSEDTAVYYCTTTRWTGSYWGQGTTLTVSS
VL: QIVLTQSPAIMSASPGEKVTITCSASSSVNYMHWFQQKPGSSPKLWIYSTANLASGVPARFSGSGSGTSYSLTISRMEAEDAATYYCQQRSSYPPTWTFGGGTKLEIKR
Q: How did the EC50 [1] turn out when B12 was run?
A: 0.36 nM

Q: And the EC50 [2]?
A: 0.16 nM

Q: What about the Top Inhibition (%) [2] of the same binder?
A: 73.1%

B13: LK-RB2-8 (antibody, human IgG4 S228P, kappa, V domains shown)
VH: QIQLVQSGPELKKPGETVKISCKASGYSFASYGMGWVKQAPGKGLKWLGWINTHSGVPTYADDFKGRFAFSLETSASTAYLQINNLKNEDTATYFCAHYGRPWFPYWGQGTLVTVSA
VL: DIQMTQSPASLSASVGETVTITCRTSENIYSYLAWYQQKQGKSPQLLVYNAKSLAEGVPSRFSGSGSGTQFSLRINSLQPEDFGTYYCQQHYETPLTFGAGTKLELKR
Q: B13 was tested. Which EC50 [1] did it give?
A: 15.1 nM

B14: LK-RB2-16 (antibody, human IgG4 S228P, kappa, V domains shown)
VH: B13 VH with S28T, A30T, S31T, G42E, L48M, H54N, V57A, A61G, P105A
VL: B13 VL with T25A, Q37H, K42E, S53T, R74K, T85S, Q90H, E93N, T94I
Q: For B14, which EC50 [1] is on record?
A: 18.5 nM

B15: LK-RB1-44 (antibody, human IgG4 S228P, kappa, V domains shown)
VH: B8 VH with R13K, F32Y, N52H
VL: DILLTQSPAILSVSPGERVSFSCRASQSIGRSIHWFQQRTNGSPSLLIKYASESISGIPSRFSGGGSGTDFTLSISNVESEDIADYYCQQSNNWPFTFGSGTKLEIKR
Q: With B15 as the binder, how does the EC50 [1] read?
A: 769 nM

B16: LK-RB1-51 (antibody, human IgG4 S228P, kappa, V domains shown)
VH: QVQIQQSGAELVKPGASVKLSCKASGYTFTEFPIHWIKQRSGQGLEWIGWFYPGSDNMNYNEKFKDKATLTADKSSSTVYMELSRLTSEDSAVYFCARHENAYFYAMDYWGQGTSVTVSS
VL: ENVLTQSPAIMSASLGEKVTMSCRASSSVNYMYWYQQKSDASPKIWIYYTSNLAPGVPARFSGSGSGNSYSLTISSMEGEDAATYYCQQFTSSPFTFGTGTKLEIKR
Q: What does the source list for B16?
A: EC50 [1]: 21.4 nM; EC50 [2]: 0.87 nM; Top Inhibition (%) [2]: 64.9%

B17: LK-RB1-54 (antibody, human IgG4 S228P, kappa, V domains shown)
VH: DVQLQESGPGLVKPSQSLSLTCSVTGYSITSGFYWNWIRQFPGNKLEWMGHISYDGTNNYNPSLKNRISITRDTSKNLFFLKLNSVTTEDTATFHCARGGYGGSYGFDYWGQGTTLTVSS
VL: B16 VL with I45L, A59V, F95W, T99G
Q: Which EC50 [2] does the source give for B17 here?
A: 1.2 nM

Q: What about the Top Inhibition (%) [2] of the same binder?
A: 54%
